B1: CPXM2 (parent)
chain: TASTKNCMVGYDMGATRCDFTLSK
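Also: lentivirally expressed fusions sorted by FACS into six bins by GFP to DsRed ratio, PSI derived from sequencing read proportions per bin multiplied by bin number.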

This series covers variants of B1. Nature of the series: protein stability index of a GFP-peptide fusion (GPS, HEK-293T) (PSI 1-6); higher = more stable. As to conditions: c terminus: a fixed tail appended.
TASTKNCWVGYDMGATRCDFTLSK: the protein stability index is 2.15. Under TASTKNCVVGYDMGATRCDFTLSK stands 2.03; under TASTKNCEVGYDMGATRCDFTLSK, 4.05. As to TASTKNCRVGYDMGATRCDFTLSK, the protein stability index was 1.35. Under TASTKNCKVGYDMGATRCDFTLSK stands 3.26; under TASTKNCDVGYDMGATRCDFTLSK, 4.13; under TASTKNCMVGPDMGATRCDFTLSK, 2.31. For TASTKNCMVGKDMGATRCDFTLSK, the protein stability index was 2.96. As to TASTKNCMVGIDMGATRCDFTLSK, the protein stability index turned out to be 2.06. Under TASTKNCMVGCDMGATRCDFTLSK stands 2.07; under TASTKNCMVGADMGATRCDFTLSK, 2.92; under TASTKNCMVGQDMGATRCDFTLSK, 3. Under TASTKNCMVGFDMGATRCDFTLSK stands 1.38; under TASTKNCMVGLDMGATRCDFTLSK, 2.41; under TASTKNCMAGYDMGATRCDFTLSK, 2.62.

As for TASTKNCMHGYDMGATRCDFTLSK, the protein stability index stood at 2.3. With TASTKNCMDGYDMGATRCDFTLSK, the protein stability index was determined as 3.58. Under TASTKNCMYGYDMGATRCDFTLSK stands 2. Under TASTKNCMRGYDMGATRCDFTLSK stands 2.18. Under TASTKNCMFGYDMGATRCDFTLSK stands 1.63; under TASTKNCMWGYDMGATRCDFTLSK, 2.09. In the case of TASTKNCMTGYDMGATRCDFTLSK, the protein stability index worked out at 3.22. As to TASTKNCMKGYDMGATRCDFTLSK, the protein stability index was found to be 2.12. Under TASTKNCMVGYDMKATRCDFTLSK stands 2.76. As for TASTKNCMVGYDMTATRCDFTLSK, the protein stability index is 2.76.

Consider TASTKNCMVGYDMAATRCDFTLSK, for which the protein stability index turned out to be 2.89. Under TASTKNCMVGYDMMATRCDFTLSK stands 2.17; under TASTKNCMVGYDMDATRCDFTLSK, 3.63; under TASTKNCMVGYDMIATRCDFTLSK, 2.31. TASTKNCMVGYDMHATRCDFTLSK: the protein stability index stood at 3. Turning to TASTKNCMVGYDMYATRCDFTLSK, the protein stability index worked out at 1.59. As to TASTKNCMVGYDMCATRCDFTLSK, the protein stability index is 1.99.

As to TASTKNCMVFYDMGATRCDFTLSK, the protein stability index amounted to 1.58. Under TASTKNCMVYYDMGATRCDFTLSK stands 3.56; under TASTKNCMVEYDMGATRCDFTLSK, 2.69; under TASTKNCMVAYDMGATRCDFTLSK, 1.97. Under TASTKNCMVDYDMGATRCDFTLSK stands 2.37.

As for TASTKNCMVKYDMGATRCDFTLSK, the protein stability index was determined as 2.42. Under TASTKNCMVTYDMGATRCDFTLSK stands 1.93; under TASTKNCMVMYDMGATRCDFTLSK, 1.96. Under TASTKNCMVGYDMGATRCDATLSK stands 2.51; under TASTKNCMVGYDMGATRCDRTLSK, 3.63; under TASTKNCMVGYDMGATRCDPTLSK, 4.12. Under TASTKNCMVGYDMGATRCDETLSK stands 4.26; under TASTKNCMVGYDMGATRCDMTLSK, 2.78.

Take TASTKNCMVGYDMGATRCDTTLSK: the protein stability index came to 3.88. Under TASDKNCMVGYDMGATRCDFTLSK stands 3.17. Consider TASAKNCMVGYDMGATRCDFTLSK, for which the protein stability index is 2.23. Under TASMKNCMVGYDMGATRCDFTLSK stands 2.58. For the variant TASLKNCMVGYDMGATRCDFTLSK, the protein stability index worked out at 1.85. Under TASCKNCMVGYDMGATRCDFTLSK stands 2.65. Under TASEKNCMVGYDMGATRCDFTLSK stands 2.12; under TARTKNCMVGYDMGATRCDFTLSK, 1.28. Under TAQTKNCMVGYDMGATRCDFTLSK stands 1.91. In the case of TAFTKNCMVGYDMGATRCDFTLSK, the protein stability index worked out at 1.63. Under TAATKNCMVGYDMGATRCDFTLSK stands 2.3. Consider TAETKNCMVGYDMGATRCDFTLSK, for which the protein stability index was 3.06. As for TATTKNCMVGYDMGATRCDFTLSK, the protein stability index came to 2.4.

As to TACTKNCMVGYDMGATRCDFTLSK, the protein stability index worked out at 2.08. In the case of TASTKNCMVGYDMGATDCDFTLSK, the protein stability index was 3.96. As to TASTKNCMVGYDMGATYCDFTLSK, the protein stability index amounted to 2.63. Under TASTKNCMVGYDMGATSCDFTLSK stands 3.31. Under TASTKNCMVGYDMGATACDFTLSK stands 3.87. Under TASTKNCMVGYDMGATKCDFTLSK stands 3.28; under TASTKNCMVGYDMGATGCDFTLSK, 3.72; under TASTKNCMVGYDMGATTCDFTLSK, 3.38. TASTKNCMVGYDMGATICDFTLSK: the protein stability index turned out to be 3.2. Under TASTKNCMVGYDMGATRCPFTLSK stands 2.77; under TASTKNCMVGYDMGATRCRFTLSK, 2.9. Under TASTKNCMVGYDMGATRCVFTLSK stands 1.78; under TASTKNCMVGYDMGATRCCFTLSK, 1.91. Under TASTKNCMVGYDMGATRCGFTLSK stands 1.94; under TASTKNCMVGYDMGATRCAFTLSK, 2.9. As to TASTKNCMVGYDMGATRCNFTLSK, the protein stability index amounted to 3.07. Under TASTKNCMVGYDMGATRCWFTLSK stands 2.24; under TASTKNCMVGYDMGATRCLFTLSK, 2.54; under TASTKNCMVGYDMGAMRCDFTLSK, 2.28.

As to TASTKNCMVGYDMGADRCDFTLSK, the protein stability index was determined as 3.72. Under TASTKNCMVGYDMGALRCDFTLSK stands 2.45; under TASTKNCMVGYDMGAERCDFTLSK, 2.97; under TASTKNCMVGYDMGAIRCDFTLSK, 1.6. Under TASTKNCMVGYDMGAKRCDFTLSK stands 2.74; under TASTKNCMVGYDMGAWRCDFTLSK, 2.39.

Consider TASTKNCMVGYDMGATRFDFTLSK, for which the protein stability index turned out to be 2.42.

For TASTKNCMVGYDMGATRADFTLSK, the protein stability index turned out to be 2.04. Under TASTKNCMVGYDMGATRSDFTLSK stands 2.27. Under TASTKNCMVGYDMGATRYDFTLSK stands 2.46; under TASTKNCMVGYDMGATRQDFTLSK, 1.75. Under TASTKNCMVGYDMGATRTDFTLSK stands 2.66. Regarding TASTKNCMVGYDMGATREDFTLSK, the protein stability index came out at 3.53.

As to TASTKNCMVGYDMGATRGDFTLSK, the protein stability index is 1.87. Under TASTKNCMVGYDMGATRLDFTLSK stands 2.4; under TASTKNCMVGYDMGATRHDFTLSK, 2.8; under TASTKNCMVGYDMGATRKDFTLSK, 3.57.

For the origin of these results see the supplement of paper PMC10567573.
